Molecular target: T1, DBP immobilized on a Biacore sensor chip (Homo sapiens, UniProt P02774)
T1 construct: DBP was purified from human plasma; purchased Biodesign International; host or cells: human plasma
T1 sequence (P02774 17-474): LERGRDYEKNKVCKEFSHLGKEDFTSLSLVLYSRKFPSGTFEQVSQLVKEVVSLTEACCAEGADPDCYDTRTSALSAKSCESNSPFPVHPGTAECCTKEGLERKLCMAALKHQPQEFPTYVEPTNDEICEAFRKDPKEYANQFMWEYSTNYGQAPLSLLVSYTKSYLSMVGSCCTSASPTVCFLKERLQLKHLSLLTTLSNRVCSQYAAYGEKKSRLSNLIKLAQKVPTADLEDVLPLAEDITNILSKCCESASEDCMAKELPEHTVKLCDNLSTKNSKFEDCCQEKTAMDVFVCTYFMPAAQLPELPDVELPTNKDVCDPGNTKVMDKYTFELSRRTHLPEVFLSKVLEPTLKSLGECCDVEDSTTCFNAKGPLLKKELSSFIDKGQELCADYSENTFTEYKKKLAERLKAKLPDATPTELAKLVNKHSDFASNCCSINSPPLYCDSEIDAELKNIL
Experiment: Biacore surface plasmon resonance: U937-C5aR cell binding to immobilized DBP
Procedure: FIG. 8A and FIG. 8B show immobilization of DBP on a Biacore surface plasmon resonance sensor chip CM5. Purified DBP in HBSS (5 μM) was coupled to the sensor chip. Coupling was detected using 5 μg/ml affinity-purified anti-DBP (FIG. 8A). Different concentrations of U937-C5aR cells in HBSS were injected into the flow cell and allowed to interact with the immobilized DBP (FIG. 8B). Data is expressed as response units of the molecular interaction on the sensor chip.
FIGS. 9A to 9C show the effect of pretreating U937-C5aR cells with purified DBP or DBP peptides on the binding to DBP immobilized on a Biacore sensor chip. FIG. 9A: 10^6 cells/ml in HBSS were not treated (control), pretreated with 50 nM DBP, 0.5 μM DBP peptide 1 (p1) or DBP peptide 2 (p2). FIG. 9B: DBP peptide 1 immobilized to the Biacore sensor chip. FIG. 9C: DBP peptide 2 immobilized to the Biacore sensor chip. Data is expressed as response units of the molecular interaction on the sensor chip.
U937-C5aR cells (10^6 cells/ml in HBSS) were pretreated with a 25 μg/ml control IgG, 50 nM purified DBP or 25 μg/ml affinity-purified anti-CD44 and then allowed to interact with DBP immobilized on a Biacore sensor chip. Data is expressed as response units of the molecular interaction on the sensor chip.
According to the present invention, the interaction of an immobilized ligand, e.g., immobilized DBP, binding to cells can be measure by any established technology available in the art, e.g., by surface plasmon resonance (SPR) or Biacore technology. For example, in the present invention, the binding of U937-C5aR cells to immobilized DBP were examined by Biacore technology, the result of which is used to further determine if the DBP peptides generated in the present invention can alter the interaction U937-C5aR cells and DBP. […] To investigate further the effect of DBP peptides on cell binding, peptide 1 (FIG. 9B) and peptide 2 (FIG. 9C) were immobilized to Biacore sensor chips. […] Finally, the present invention also identifies that CD44 on the cell surface binds DBP and can, in part, mediate the C5a chemotactic cofactor effect of DBP (McVoy and Kew, J. Immunol. 175:4754, 2005). Therefore, using Biacore technology the present invention addresses the effect of blocking CD44 on U937-C5aR binding to immobilized DBP (FIG. 10). In the present invention, U937-C5aR cells were pretreated with either an irrelevant goat IgG (negative control), purified soluble DBP (positive control) or affinity-purified goat anti-CD44. […] These Biacore experiments have provided a powerful quantitative tool to investigate the cell binding region on DBP and examine the effects on DBP peptides on this interaction.

B1: DBP: Purified human DBP obtained from Biodesign International (protein)
chain: T1 sequence (P02774 17-474)
- inhibition of U937-C5aR cell binding to the DBP chip (FIG. 9A, 10^6 cells/ml pretreated with 50 nM DBP or 0.5 μM DBP peptide): almost completely blocked
- inhibition of U937-C5aR binding to immobilized DBP (FIG. 10, cells pretreated with 50 nM purified DBP or 25 μg/ml anti-CD44): completely blocks binding
